# According to patent US20230279126A1 (published 2023):
# Substitutions are numbered along the chain they refer to.
# T1: extracellular domain of mouse IL23R (mIL23R ECD) (mouse, UniProt Q8K4B4 24-374)
# T1 construct: The immunogen was an ECD-human IgG1 hinge-Fc fusion
# T1 sequence: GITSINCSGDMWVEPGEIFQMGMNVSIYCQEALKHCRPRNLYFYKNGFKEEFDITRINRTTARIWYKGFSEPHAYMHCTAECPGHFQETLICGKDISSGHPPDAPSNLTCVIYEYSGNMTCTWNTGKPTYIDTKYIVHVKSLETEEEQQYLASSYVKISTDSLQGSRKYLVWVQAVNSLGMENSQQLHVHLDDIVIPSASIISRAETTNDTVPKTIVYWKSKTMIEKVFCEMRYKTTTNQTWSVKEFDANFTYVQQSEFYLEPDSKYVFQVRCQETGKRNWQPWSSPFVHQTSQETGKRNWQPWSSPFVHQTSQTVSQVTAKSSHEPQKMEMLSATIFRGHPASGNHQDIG
# B1: mIL23R VHH12 (VHH)
# VHH: QVQLQESGGGSVQAGGSLRLSCAASGYTYSSCTMGWYRQAPGKERELVSMLISDGSTFYADSVKGRFTFSQENAKNTVYLQMNSLKPEDTAMYYCGCATLGSRTVWGQGTQVTVSS
# notes: Phagemid clone with his-tag, periplasmic extract
# B2: mIL23R VHH25 (VHH)
# VHH: B1 VHH with Y94F
# notes: as for B1
# B3: mIL23R VHH11 (VHH)
# VHH: B1 VHH with N76S
# notes: as for B1
# B4: mIL23R VHH36 (VHH)
# VHH: B1 VHH with Y27D, E46D, L51V, I52F, V105I
# notes: as for B1
# B5: mIL23R VHH27 (VHH)
# VHH: B1 VHH with F69S
# notes: as for B1
# B6: mIL23R VHH15 (VHH)
# VHH: B1 VHH with L51V, I52F, V105I
# notes: as for B1
# B7: mIL23R VHH10 (VHH)
# VHH: B1 VHH with Y27D, E46D, I52M, S53G, V105I
# notes: as for B1
# B8: mIL23R VHH8 (VHH)
# VHH: B1 VHH with A23T, G26R, L51V, I52F, V105I
# notes: as for B1
# B9: mIL23R VHH1 (VHH)
# VHH: B1 VHH with N73Y
# notes: as for B1
# B10: mIL23R VHH16 (VHH)
# VHH: B1 VHH with Y27D, E46D, I52M, S53G, S84N, V105I
# notes: as for B1
# B11: mIL23R VHH29 (VHH)
# VHH: QVQLQESGGGLVQPGGSLRLSCAASGFTFSTSAMTWVRQAPGKGLDWVSGIDSGGTTVYADSVKGRFTISKDNAKNTLYLQMNSLKTEDTAVYYCATGLPWGNTWRTRGQGTQVTVSS
# notes: as for B1
# B12: mIL23R VHH39 (VHH)
# VHH: B11 VHH with T31R, K71R, N73S, S84G, T97I
# notes: as for B1
# B13: mIL23R VHH33 (VHH)
# VHH: B11 VHH with A23T, A24T, T31S, R108T
# notes: as for B1
# B14: mIL23R VHH7 (VHH)
# VHH: B11 VHH with T31R, K71R, N73S, T97I
# notes: as for B1
# B15: mIL23R VHH41 (VHH)
# VHH: B11 VHH with S21T
# notes: as for B1
# B16: mIL23R VHH14 (VHH)
# VHH: B11 VHH with S30R, K71R, N73S, T97M
# notes: as for B1
# B17: mIL23R VHH37 (VHH)
# VHH: B11 VHH with A24T, T31S, S32G, R108T
# notes: as for B1
# B18: mIL23R VHH35 (VHH)
# VHH: B11 VHH with S21A, A23S, T31S, F67A, S70L
# notes: as for B1
# B19: mIL23R VHH20 (VHH)
# VHH: B11 VHH with T31S, F67A, S70L
# notes: as for B1
# B20: mIL23R VHH32 (VHH)
# VHH: B11 VHH with Q13R, T31R, K71R, N73S, T97I
# notes: as for B1
# B21: mIL23R VHH21 (VHH)
# VHH: B11 VHH with A24T, T31S, R108T
# notes: as for B1
# B22: mIL23R VHH38 (VHH)
# VHH: B11 VHH with T104I
# notes: as for B1
# Target: T1, extracellular domain of mouse IL23R …
# Assay: periplasmic extract ELISA (PE-ELISA) of phage clones, colorimetric
# How it was run: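 VHH domains were obtained from camels immunized sequentially with human and mouse receptor extracellular domain–Fc fusion proteins, then cloned with a his-tag into a phagemid in E. coli. The phage library was panned over several rounds on the human or mouse extracellular domain, and single clones were checked for selective binding by colorimetric periplasmic extract ELISA.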
row,Binder,binding result
1,B1,binds
2,B2,binds
3,B3,binds
4,B4,binds
5,B5,binds
6,B6,binds
7,B7,binds
8,B8,binds
9,B9,binds
10,B10,binds
11,B11,binds
12,B12,binds
13,B13,binds
14,B14,binds
15,B15,binds
16,B16,binds
17,B17,binds
18,B18,binds
19,B19,binds
20,B20,binds
21,B21,binds
22,B22,binds
